US20180155451A1 (published 2018)

Key:
[1] = biological target: T1, FcγRIIIa extracellular domain with C-terminal His tag (human, UniProt P08637 17-208); experiment: SPR; He/Con_3a over He/Con_2b (FcγRIIb)
T1 construct: extracellular domain; also called 3a; FcgRIIIa

[2] = biological target: T2, FcγRIIb extracellular domain with C-terminal His tag (human, UniProt P31994 43-217); experiment: SPR, relative to GpH7-A5/GpH7-B3/GpL16-k0
T2 construct: extracellular domain; also called 2b; FcgRIIb
T2 sequence (looked up): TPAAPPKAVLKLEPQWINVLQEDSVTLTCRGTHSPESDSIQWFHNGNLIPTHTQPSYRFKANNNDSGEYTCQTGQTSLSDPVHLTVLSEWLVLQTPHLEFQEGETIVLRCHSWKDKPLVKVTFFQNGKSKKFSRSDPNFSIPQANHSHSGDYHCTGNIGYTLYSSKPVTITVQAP

[3] = biological target: T1, FcγRIIIa extracellular domain with …; experiment: SPR, relative to GpH7-A5/GpH7-B3/GpL16-k0

T1 sequence (P08637 17-208): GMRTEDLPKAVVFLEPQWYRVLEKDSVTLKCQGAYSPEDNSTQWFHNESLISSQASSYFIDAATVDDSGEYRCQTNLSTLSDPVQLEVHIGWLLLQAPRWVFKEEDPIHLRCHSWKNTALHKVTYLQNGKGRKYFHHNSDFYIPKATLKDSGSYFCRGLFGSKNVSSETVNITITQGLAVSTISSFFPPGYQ

Row | Binder | He_3a/2b (IIIa/IIb) [1] | He/Con_2b [2] | He/Con_3a [3]
1 | GpH7-A5/GpH7-B3 variant E269_01G/GpL16-k0 (antibody, human IgG1, kappa, He Ab: alteration in one H chain only; also called He Ab) heavy 1: not shown heavy 2: not shown light: DIVMTQSPLSLPVTPGEPASISCQASESLVHSNRNTYLHWYLQKPGQSPQLLIYKVSNRFSGVPDRFSGSGSGTDFTLKISRVEAEDVGVYYCSQNTHVPPTFGQGTKVEIERTVAAPSVFIFPPSDEQLKSGTASVVCLLNNFYPREAKVQWKVDNALQSGNSQESVTEQDSKDSTYSLSSTLTLSKADYEKHKVYACEVTHQGLSSPVTKSFNRGEC | 1.21 ratio | 51.5 control=100 | 62.2 control=100
2 | GpH7-A5/GpH7-B3 variant E269_11K/GpL16-k0 (antibody, human IgG1, kappa, He Ab: alteration in one H chain only; also called He Ab) heavy 1: not shown heavy 2: not shown light: DIVMTQSPLSLPVTPGEPASISCQASESLVHSNRNTYLHWYLQKPGQSPQLLIYKVSNRFSGVPDRFSGSGSGTDFTLKISRVEAEDVGVYYCSQNTHVPPTFGQGTKVEIERTVAAPSVFIFPPSDEQLKSGTASVVCLLNNFYPREAKVQWKVDNALQSGNSQESVTEQDSKDSTYSLSSTLTLSKADYEKHKVYACEVTHQGLSSPVTKSFNRGEC | 2.47 ratio | 17.8 control=100 | 44 control=100
3 | GpH7-A5/GpH7-B3 variant E269_16H/GpL16-k0 (antibody, human IgG1, kappa, He Ab: alteration in one H chain only; also called He Ab) heavy 1: not shown heavy 2: not shown light: DIVMTQSPLSLPVTPGEPASISCQASESLVHSNRNTYLHWYLQKPGQSPQLLIYKVSNRFSGVPDRFSGSGSGTDFTLKISRVEAEDVGVYYCSQNTHVPPTFGQGTKVEIERTVAAPSVFIFPPSDEQLKSGTASVVCLLNNFYPREAKVQWKVDNALQSGNSQESVTEQDSKDSTYSLSSTLTLSKADYEKHKVYACEVTHQGLSSPVTKSFNRGEC | 1.33 ratio | 38.5 control=100 | 51.2 control=100
4 | GpH7-A5/GpH7-B3 variant E269_12R/GpL16-k0 (antibody, human IgG1, kappa, He Ab: alteration in one H chain only; also called He Ab) heavy 1: not shown heavy 2: not shown light: DIVMTQSPLSLPVTPGEPASISCQASESLVHSNRNTYLHWYLQKPGQSPQLLIYKVSNRFSGVPDRFSGSGSGTDFTLKISRVEAEDVGVYYCSQNTHVPPTFGQGTKVEIERTVAAPSVFIFPPSDEQLKSGTASVVCLLNNFYPREAKVQWKVDNALQSGNSQESVTEQDSKDSTYSLSSTLTLSKADYEKHKVYACEVTHQGLSSPVTKSFNRGEC | 1.72 ratio | 25.2 control=100 | 43.2 control=100
5 | GpH7-A5/GpH7-B3 variant G236_04F/GpL16-k0 (antibody, human IgG1, kappa, He Ab: alteration in one H chain only; also called He Ab) heavy 1: not shown heavy 2: not shown light: DIVMTQSPLSLPVTPGEPASISCQASESLVHSNRNTYLHWYLQKPGQSPQLLIYKVSNRFSGVPDRFSGSGSGTDFTLKISRVEAEDVGVYYCSQNTHVPPTFGQGTKVEIERTVAAPSVFIFPPSDEQLKSGTASVVCLLNNFYPREAKVQWKVDNALQSGNSQESVTEQDSKDSTYSLSSTLTLSKADYEKHKVYACEVTHQGLSSPVTKSFNRGEC | 2.21 ratio | 39.3 control=100 | 87 control=100
6 | GpH7-A5/GpH7-B3 variant E269_06M/GpL16-k0 (antibody, human IgG1, kappa, He Ab: alteration in one H chain only; also called He Ab) heavy 1: not shown heavy 2: not shown light: DIVMTQSPLSLPVTPGEPASISCQASESLVHSNRNTYLHWYLQKPGQSPQLLIYKVSNRFSGVPDRFSGSGSGTDFTLKISRVEAEDVGVYYCSQNTHVPPTFGQGTKVEIERTVAAPSVFIFPPSDEQLKSGTASVVCLLNNFYPREAKVQWKVDNALQSGNSQESVTEQDSKDSTYSLSSTLTLSKADYEKHKVYACEVTHQGLSSPVTKSFNRGEC | 1.25 ratio | 46.7 control=100 | 58.5 control=100
7 | GpH7-A5/GpH7-B3 variant E269_03V/GpL16-k0 (antibody, human IgG1, kappa, He Ab: alteration in one H chain only; also called He Ab) heavy 1: not shown heavy 2: not shown light: DIVMTQSPLSLPVTPGEPASISCQASESLVHSNRNTYLHWYLQKPGQSPQLLIYKVSNRFSGVPDRFSGSGSGTDFTLKISRVEAEDVGVYYCSQNTHVPPTFGQGTKVEIERTVAAPSVFIFPPSDEQLKSGTASVVCLLNNFYPREAKVQWKVDNALQSGNSQESVTEQDSKDSTYSLSSTLTLSKADYEKHKVYACEVTHQGLSSPVTKSFNRGEC | 1.25 ratio | 45.1 control=100 | 56.6 control=100
8 | GpH7-A5/GpH7-B3 variant G236_08L/GpL16-k0 (antibody, human IgG1, kappa, He Ab: alteration in one H chain only; also called He Ab) heavy 1: not shown heavy 2: not shown light: DIVMTQSPLSLPVTPGEPASISCQASESLVHSNRNTYLHWYLQKPGQSPQLLIYKVSNRFSGVPDRFSGSGSGTDFTLKISRVEAEDVGVYYCSQNTHVPPTFGQGTKVEIERTVAAPSVFIFPPSDEQLKSGTASVVCLLNNFYPREAKVQWKVDNALQSGNSQESVTEQDSKDSTYSLSSTLTLSKADYEKHKVYACEVTHQGLSSPVTKSFNRGEC | 1.21 ratio | 26.8 control=100 | 32.5 control=100
9 | GpH7-A5/GpH7-B3 variant E269_07I/GpL16-k0 (antibody, human IgG1, kappa, He Ab: alteration in one H chain only; also called He Ab) heavy 1: not shown heavy 2: not shown light: DIVMTQSPLSLPVTPGEPASISCQASESLVHSNRNTYLHWYLQKPGQSPQLLIYKVSNRFSGVPDRFSGSGSGTDFTLKISRVEAEDVGVYYCSQNTHVPPTFGQGTKVEIERTVAAPSVFIFPPSDEQLKSGTASVVCLLNNFYPREAKVQWKVDNALQSGNSQESVTEQDSKDSTYSLSSTLTLSKADYEKHKVYACEVTHQGLSSPVTKSFNRGEC | 1.27 ratio | 43.9 control=100 | 55.8 control=100
10 | GpH7-A5/GpH7-B3 variant G236_05P/GpL16-k0 (antibody, human IgG1, kappa, He Ab: alteration in one H chain only; also called He Ab) heavy 1: not shown heavy 2: not shown light: DIVMTQSPLSLPVTPGEPASISCQASESLVHSNRNTYLHWYLQKPGQSPQLLIYKVSNRFSGVPDRFSGSGSGTDFTLKISRVEAEDVGVYYCSQNTHVPPTFGQGTKVEIERTVAAPSVFIFPPSDEQLKSGTASVVCLLNNFYPREAKVQWKVDNALQSGNSQESVTEQDSKDSTYSLSSTLTLSKADYEKHKVYACEVTHQGLSSPVTKSFNRGEC | 1.95 ratio | 19 control=100 | 37.1 control=100
11 | GpH7-A5/GpH7-B3 variant E269_02A/GpL16-k0 (antibody, human IgG1, kappa, He Ab: alteration in one H chain only; also called He Ab) heavy 1: not shown heavy 2: not shown light: DIVMTQSPLSLPVTPGEPASISCQASESLVHSNRNTYLHWYLQKPGQSPQLLIYKVSNRFSGVPDRFSGSGSGTDFTLKISRVEAEDVGVYYCSQNTHVPPTFGQGTKVEIERTVAAPSVFIFPPSDEQLKSGTASVVCLLNNFYPREAKVQWKVDNALQSGNSQESVTEQDSKDSTYSLSSTLTLSKADYEKHKVYACEVTHQGLSSPVTKSFNRGEC | 1.38 ratio | 49.9 control=100 | 68.7 control=100
12 | GpH7-A5/GpH7-B3 variant E269_08L/GpL16-k0 (antibody, human IgG1, kappa, He Ab: alteration in one H chain only; also called He Ab) heavy 1: not shown heavy 2: not shown light: DIVMTQSPLSLPVTPGEPASISCQASESLVHSNRNTYLHWYLQKPGQSPQLLIYKVSNRFSGVPDRFSGSGSGTDFTLKISRVEAEDVGVYYCSQNTHVPPTFGQGTKVEIERTVAAPSVFIFPPSDEQLKSGTASVVCLLNNFYPREAKVQWKVDNALQSGNSQESVTEQDSKDSTYSLSSTLTLSKADYEKHKVYACEVTHQGLSSPVTKSFNRGEC | 1.21 ratio | 42.9 control=100 | 52.1 control=100
13 | GpH7-A5/GpH7-B3 variant E269_13S/GpL16-k0 (antibody, human IgG1, kappa, He Ab: alteration in one H chain only; also called He Ab) heavy 1: not shown heavy 2: not shown light: DIVMTQSPLSLPVTPGEPASISCQASESLVHSNRNTYLHWYLQKPGQSPQLLIYKVSNRFSGVPDRFSGSGSGTDFTLKISRVEAEDVGVYYCSQNTHVPPTFGQGTKVEIERTVAAPSVFIFPPSDEQLKSGTASVVCLLNNFYPREAKVQWKVDNALQSGNSQESVTEQDSKDSTYSLSSTLTLSKADYEKHKVYACEVTHQGLSSPVTKSFNRGEC | 1.31 ratio | 47.8 control=100 | 62.7 control=100
14 | GpH7-A5/GpH7-B3 variant G236_12R/GpL16-k0 (antibody, human IgG1, kappa, He Ab: alteration in one H chain only; also called He Ab) heavy 1: not shown heavy 2: not shown light: DIVMTQSPLSLPVTPGEPASISCQASESLVHSNRNTYLHWYLQKPGQSPQLLIYKVSNRFSGVPDRFSGSGSGTDFTLKISRVEAEDVGVYYCSQNTHVPPTFGQGTKVEIERTVAAPSVFIFPPSDEQLKSGTASVVCLLNNFYPREAKVQWKVDNALQSGNSQESVTEQDSKDSTYSLSSTLTLSKADYEKHKVYACEVTHQGLSSPVTKSFNRGEC | 1.84 ratio | 6.8 control=100 | 12.5 control=100
15 | GpH7-A5/GpH7-B3 variant E269_18N/GpL16-k0 (antibody, human IgG1, kappa, He Ab: alteration in one H chain only; also called He Ab) heavy 1: not shown heavy 2: not shown light: DIVMTQSPLSLPVTPGEPASISCQASESLVHSNRNTYLHWYLQKPGQSPQLLIYKVSNRFSGVPDRFSGSGSGTDFTLKISRVEAEDVGVYYCSQNTHVPPTFGQGTKVEIERTVAAPSVFIFPPSDEQLKSGTASVVCLLNNFYPREAKVQWKVDNALQSGNSQESVTEQDSKDSTYSLSSTLTLSKADYEKHKVYACEVTHQGLSSPVTKSFNRGEC | 1.29 ratio | 44.8 control=100 | 57.8 control=100
16 | GpH7-A5/GpH7-B3 variant G236_03V/GpL16-k0 (antibody, human IgG1, kappa, He Ab: alteration in one H chain only; also called He Ab) heavy 1: not shown heavy 2: not shown light: DIVMTQSPLSLPVTPGEPASISCQASESLVHSNRNTYLHWYLQKPGQSPQLLIYKVSNRFSGVPDRFSGSGSGTDFTLKISRVEAEDVGVYYCSQNTHVPPTFGQGTKVEIERTVAAPSVFIFPPSDEQLKSGTASVVCLLNNFYPREAKVQWKVDNALQSGNSQESVTEQDSKDSTYSLSSTLTLSKADYEKHKVYACEVTHQGLSSPVTKSFNRGEC | 1.64 ratio | 35.3 control=100 | 57.7 control=100
17 | GpH7-A5/GpH7-B3 variant G236_07I/GpL16-k0 (antibody, human IgG1, kappa, He Ab: alteration in one H chain only; also called He Ab) heavy 1: not shown heavy 2: not shown light: DIVMTQSPLSLPVTPGEPASISCQASESLVHSNRNTYLHWYLQKPGQSPQLLIYKVSNRFSGVPDRFSGSGSGTDFTLKISRVEAEDVGVYYCSQNTHVPPTFGQGTKVEIERTVAAPSVFIFPPSDEQLKSGTASVVCLLNNFYPREAKVQWKVDNALQSGNSQESVTEQDSKDSTYSLSSTLTLSKADYEKHKVYACEVTHQGLSSPVTKSFNRGEC | 1.93 ratio | 31 control=100 | 59.7 control=100
